{"source": "patent US12371675B2", "about": "“Process and microorganism for synthesis of adipic acid from carboxylic acids” (THE GOVERNING COUNCIL OF THE UNIVERSITY OF TORONTO, priority 2015, dated 2025)", "molecules": {"B1": {"name": "SM2011_b21186: aminotransferase (AT) from Sinorhizobium meliloti (protein)", "chain": "MTSLTDRKNAAISRGVGMTTQVYADRAENAEIWDKEGNRYIDFAAGIAVVNTGHRHPKVIAAVKAQLDRFTHTCHQVVPYENYVHLAERLNAIVPGDFAKKTIFVTTGAEAVENAVKIARAATGRQAVVAFGGGFHGRTFMGMALTGKVVPYKVGFGAMPADVFHAPFPIELHGVTVEQSLSALKKLFAADVDPARVAAIIIEPVQGEGGFYPVPTAFMKALREVCDQHGILLIADEVQTGFARTGKLFAMEHHGVAPDLTTMAKSLAGGFPLAAVTGRAEIMDAPGPGGLGGTYGGNPLGIAAAHAVLDVIAEENLCERANQLGNRLKQRLAAIREKAPEIVDIRGPGFMNAVEFNDVRTNLPSAEFANKVRLLALEKGLILLTCGVHGNVIRFLAPITIQDEVFAEALDTIEASILEARG"}, "B2": {"name": "gabT: aminotransferase (AT) from Escherichia coli (protein)", "chain": "MNSNKELMQRRSQAIPRGVGQIHPIFADRAENCRVWDVEGREYLDFAGGIAVLNTGHLHPKVVAAVEAQLKKLSHTCFQVLAYEPYLELCEIMNQKVPGDFAKKTLLVTTGSEAVENAVKIARAATKRSGTIAFSGAYHGRTHYTLALTGKVNPYSAGMGLMPGHVYRALYPCPLHGISEDDAIASIHRIFKNDAAPEDIAAIVIEPVQGEGGFYASSPAFMQRLRALCDEHGIMLIADEVQSGAGRTGTLFAMEQMGVAPDLTTFAKSIAGGFPLAGVTGRAEVMDAVAPGGLGGTYAGNPIACVAALEVLKVFEQENLLQKANDLGQKLKDGLLAIAEKHPEIGDVRGLGAMIAIELFEDGDHNKPDAKLTAEIVARARDKGLILLSCGPYYNVLRILVPLTIEDAQIRQGLEIISQCFDEAKQ"}, "B3": {"name": "Spo3471: aminotransferase (AT) from Ruegeria pomeroyi (protein)", "chain": "MATITNHMPTAELQALDAAHHLHPFSANNALGEEGTRVITRARGVWLNDSEGEEILDAMAGLWCVNIGYGRDELAEVAARQMRELPYYNTFFKTTHVPAIALAQKLAELAPGDLNHVFFAGGGSEANDTNIRMVRTYWQNKGQPEKTVIISRKNAYHGSTVASSALGGMAGMHAQSGLIPDVHHINQPNWWAEGGDMDPEEFGLARARELEEAILELGENRVAAFIAEPVQGAGGVIVAPDSYWPEIQRICDKYDILLIADEVICGFGRTGNWFGTQTMGIRPHIMTIAKGLSSGYAPIGGSIVCDEVAHVIGKDEFNHGYTYSGHPVAAAVALENLRILEEENILDHVRNVAAPYLKEKWEALTDHPLVGEAKIVGMMASIALTPNKASRAKFASEPGTIGYICRERCFANNLIMRHVGDRMIISPPLVITPAEIDEMFVRIRKSLDEAQAEIEKQGLMKSAA"}, "B4": {"name": "Mll7127: aminotransferase (AT) from Rhizobium loti (protein)", "chain": "MLNQSNELNAWDRDHFFHPSTHMGTHARGESPTRIMAGGEGVTVWDNNGRKSIDAFAGLYCVNVGYGRQKIADAIATQAKNLAYYHAYVGHGTEASITLAKMIIDRAPKGMSRVYFGLSGSDANETNIKLIWYYNNVLGRPEKKKIISRWRGYHGSGVMTGSLTGLDLFHNAFDLPRAPVLHTEAPYYFRRTDRSMSEEQFSQHCADKLEEMILAEGPETIAAFIGEPILGTGGIVPPPAGYWEKIQAVLKKYDVLLVADEVVTGFGRLGTMFGSDHYGIKPDLITIAKGLTSAYAPLSGVIVADRVWQVLVQGSDKLGSLGHGWTYSAHPICVAAGVANLELIDEMDLVTNAGETGAYFRAELAKAVGGHKNVGEVRGDGMLAAVEFVADKDDRVFFDASQKIGPQVATALAASGVIGRAMPQGDILGFAPPLCLTREQADIVVSKTADAVKSVFANL"}, "B5": {"name": "SM2011_b20423: aminotransferase (AT) from Sinorhizobium meliloti (protein)", "chain": "MLERSNELTAWDRDHFFHPSTHMGMHARGETPTRVIGGGEGVYITDISGKRSLDAFAGLYCVNVGYGRQKIADAIAEQAKNLAYYHAYVGHGTEASIRLSKMIIDRAPEGMSRVYFGLSGSDANETNIKLIWYYNNILGRPEKKKIISRWRGYHGSGVMTGSLTGLHLFHNAFDLPRAPILHTEAPYYFRRPDRSMSEEQFSQYCADKLEEMILAEGPDTVAAFIGEPILGTGGIVPPPKGYWEKIQAVLQKYDILLVADEVVTGFGRLGTMFGSDHYGIKPDLITIAKGLTSAYAPLSGTIVSDKLWQVLVKGSDELGAIGHGWTYSAHPICAAAGIANLELIDELGIVENAGSTGAYFRAELQKAVGDHRHVGEVRGDGLMAAIEFVEDRDDRAFFDPGRKVGPQVAAALLERGVIGRAMPQGDILGFAPPLCLTRDEADIVVKAAADTIQSVLGR"}, "B6": {"name": "Syrb2: aminotransferase (AT) from Pseudomonas syringae (protein)", "chain": "MSKKFALTAEQRASFEKNGFIGPFDAYSPEEMKETWKRTRLRLLDRSAAAYQDLDAISGGTNIANYDRHLDDDFLASHICRPEICDRVESILGPNVLCWRTEFFPKYPGDEGTDWHQADTFANASGKPQIIWPENEEFGGTITVWTAFTDANIANGCLQFIPGTQNSMNYDETKRMTYEPDANNSVVKDGVRRGFFGYDYRQLQIDENWKPDEASAVPMQMKAGQFIIFWSTLMHASYPHSGESQEMRMGFASRYVPSFVHVYPDSDHIEEYGGRISLEKYGAVQVIGDETPEYNRLVTHTTRGKKFEAV"}, "B7": {"name": "EREDCK: 2-enoate reductase (ERED) from Clostridium kluyveri DSM 555 (protein)", "chain": "MKNKSLFEPIKIGNMEVKNKIAMAPMGAFGLVDNECCFNQRAVDYYVERAKGGTGLIITSVVKVENELDKVLTGVLPITSINPAKFIMTSSEMTERVHAYGSKIFLQLSMGFGRSGAPGGLLTSQPVSASAVPNYWDPTVTCRELTTSEVEWIVEKFAEGAKIAHKAGFDGVEIHAVHEGYLLDQFTLSIFNRRTDKYGGDLRGRLQLPIEIVEAIKTEVGSNFPVGLRYSVKSCIKDWGQGGLAEEDYVEKGRDLEEGLEAAKILEAAGYDAFNADLGTYDAWYWAHPPLYQKDGLYLPYTKELKKVVKIPVMVAGKMGMPDVAEGALEDEAADMVTLGRPLLCDAYWPKKVFTGQIDRIRPCIGCHTGCMGRGFEGRPLSCTVNPAAGRERYYEVKPAAAPKKVMIVGGGVAGMEAARITAMRGHKVSMYEGTKELGGQVIPASVPDFKIDDRRLLDWYRNEMKELKVKLVLDTNVTEEVVEKEKPDVVIIATGAKEIKLNLPGIEKDKVATVIEVLKGSKQVGENVLMVGGGLAGCETALYLAKQGKKVTIIEARDTILNAGKPVPHMNKIMLIDLLKNSGVNIITETSLLEVTDRGAILIDNKFKKQNIDADTVVIAVGFKADRELYNKLRDKVADLYLVGDANESANIMNAIWSANEIALNC"}}}
{"experiment": "AT activity coupled with alanine and glutamate dehydrogenases", "assay_type": "biochemical", "settings": "10 mM adipaldehyde, alanine and glutamate amino-donors; ND = no activity was detected", "units": {"Adipaldehyde 10 mM U/mg": "U/mg"}}
{"molecule": "B1", "Adipaldehyde 10 mM U/mg": "0.051 ± 0.014"}
{"molecule": "B2", "Adipaldehyde 10 mM U/mg": "0.337 ± 0.008"}
{"molecule": "B3", "Adipaldehyde 10 mM U/mg": "0.021 ± 0.001"}
{"molecule": "B4", "Adipaldehyde 10 mM U/mg": "0.063 ± 0.001"}
{"molecule": "B5", "Adipaldehyde 10 mM U/mg": "0.162 ± 0.002"}
{"molecule": "B6", "Adipaldehyde 10 mM U/mg": "0.040 ± 0.001"}
{"experiment": "Whole-cell biotransformation of muconic acid by E. coli expressing EREDs", "assay_type": "cell-based", "settings": "0.7 mM, 24-hr incubation", "description": "After a 24-hr incubation, no muconic acid or 2-hexenedioic acid were detected in the culture, and a 99% yield of adipic acid was obtained (FIGS. 8a, 8b, and 8c). […] The 3-hexenedioic acid-like compound appears to be an inefficient substrate for these EREDS. This is similar to the mutated 2,4-dienoyl-CoA reductases from E. coli, which catalyze hydrogenation of 2,4-dienoyl CoA into 3-enoyl CoA (Tu, X., Hubbard, P. A., Kim, J. J. P. & Schulz, H. Two distinct proton donors at the active site of Escherichia coli 2,4-dienoyl-CoA reductase are responsible for the formation of different products. Biochemistry 47, 1167-1175 (2008).).", "units": {"yield of adipic acid from trans,trans-muconic acid": "%"}}
{"molecule": "B7", "yield of adipic acid from trans,trans-muconic acid": 99}
